Assay results as given in paper PMC5722895.

Columns and labels:
[1] = target: RBD–SBD (1–148/247–432) (E. coli) (UniProt P0A850); assay: SEC-MALS; as a2 but 250 mM KCl; dimer to monomers
[2] = target: RBD–SBD (1–148/247–432) (E. coli) (UniProt P0A850); assay: AUC; sedimentation equilibrium, 6 °C, 100 mM KCl (sample buffer: 20 mM K-phosphate pH 6.5, 100 mM KCl, 0.5 mM EDTA); 12 μM TF, 48 and 135 μM RBD–SBD; global fit to a monomer–dimer model; dimer to monomers
[3] = target: RBD–SBD (1–148/247–432) (E. coli) (UniProt P0A850); assay: SEC-MALS; sample buffer (20 mM K-phosphate pH 6.5, 100 mM KCl, 0.5 mM EDTA); 6 °C for the individual domains; concentration series fitted to a fast monomer–dimer equilibrium; dimer to monomers
[4] = target: RBD–SBD (1–148/247–432) (E. coli) (UniProt P0A850); assay: SEC-MALS; as a2 but 500 mM KCl; dimer to monomers
[5] = target: His6-tagged full-length TF (E. coli) (UniProt P0A850); assay: SEC-MALS; preliminary data on His6-tagged full-length TF; elution concentration 10 µM; conservative estimate of KD

Substance | Kd [1] | Kd [2] | Kd [3] | stoichiometry N [3] | Kd [4] | Kd [5] | stoichiometry N [5]
RBD–SBD (1–148/247–432) (from UniProt P0A850 1-148; P0A850 247-432) (domain or fragment) | > 500 µM | 54 µM | 72 µM | 2 | > 500 µM | – | –
His6-tagged full-length TF (from UniProt P0A850 1-432) (natural protein) | – | – | – | – | – | < 0.1 µM | 2
